In article PMC3499583:
Where “and” joins values, the source holds several entries; their conditions need not be identical. Equal values may be shown once.

Key:
[1] = target: P. falciparum MTRAP TSR1+2 fragment, biotinylated bait (Cd4d3+4-biotin) (P. falciparum); assay: SPR; equilibrium (steady state affinity model); biotinylated MTRAP or TSR1+2 captured on a streptavidin-coated chip, serial dilutions of purified Semaphorin-7A injected at 20 µl/min; Biacore T100, 37°C, HBS-EP; reference flow cell with biotinylated rat Cd4d3+4
[2] = target: P. falciparum MTRAP entire ectodomain, biotinylated bait (Cd4d3+4-biotin) (P. falciparum); assay: as above
[3] = target: Human Semaphorin-7A ectodomain, natural variant R207Q, biotinylated bait (human); assay: SPR; kinetic (dissociation model fitted to a family of binding curves); biotinylated Semaphorin-7A or its variants captured on a streptavidin-coated chip, serial dilutions of purified MTRAP injected at 100 µl/min; Biacore T100, 37°C, HBS-EP
[4] = target: Human Semaphorin-7A ectodomain, natural variant Q457K, biotinylated bait (human); assay: as above
[5] = target: Human Semaphorin-7A ectodomain, natural variant R460H, biotinylated bait (human); assay: as above
[6] = target: Human Semaphorin-7A ectodomain, natural variant S115T, biotinylated bait (human); assay: as above
[7] = target: Human Semaphorin-7A ectodomain, natural variant E473V, biotinylated bait (human); assay: as above
[8] = target: Human Semaphorin-7A ectodomain, natural variant Q530P, biotinylated bait (human); assay: as above
[9] = target: Human Semaphorin-7A ectodomain, natural variant R475T, biotinylated bait (human); assay: as above
[10] = target: Human Semaphorin-7A entire ectodomain, biotinylated bait (Cd4d3+4-biotin) (human); assay: as above
[11] = target: Human Semaphorin-7A ectodomain, natural variant R474L, biotinylated bait (human); assay: as above
[12] = target: purified monomeric Semaphorin-7A ectodomain (Cd4d3+4-His6) (human); assay: SEC + other: amino acid analysis; peak fraction of the SEC of the equimolar mixture; amino acid composition compared with theoretical 1:1, 2:1 and 1:2 (Semaphorin-7A:MTRAP)
[13] = target: Semaphorin-7A entire ectodomain, biotinylated bait (human); assay: SPR; Biacore T100; biotinylated Semaphorin-7A ectodomain, PNGase F-treated form, single domains or variants captured on a streptavidin chip, purified monomeric MTRAP injected; reference biotinylated rat Cd4d3+4; 37°C, HBS-EP
[14] = target: PNGase F-treated Semaphorin-7A, biotinylated bait (human); assay: as above
[15] = target: Semaphorin-7A Sema domain, biotinylated bait (human) (UniProt O75326); assay: as above
[16] = target: MTRAP TSR1+2 fragment, biotinylated bait (P. falciparum); assay: SPR; Biacore T100; biotinylated MTRAP or TSR baits captured on a streptavidin chip, serial dilutions of purified Semaphorin-7A injected (20 µl/min for equilibrium); reference biotinylated rat Cd4d3+4; 37°C, HBS-EP
[17] = target: MTRAP entire ectodomain, biotinylated bait (P. falciparum); assay: as above
[18] = target: purified monomeric Semaphorin-7A ectodomain (Cd4d3+4-His6) (human); assay: SEC; Superdex 200 Tricorn 10/600 in HBS-EP; nickel-purified His-tagged proteins alone and mixed at equimolar concentrations; fractions on SDS-PAGE, Coomassie
[19] = target: purified monomeric Semaphorin-7A ectodomain (Cd4d3+4-His6) (human); assay: SEC-MALS; Superdex200 10/30 in 50 mM Tris.HCl pH 7.5, 150 mM NaCl, 0.4 ml/min; Dawn Heleos-II and Optilab-Rex

UniProt O75326, sequence (O75326 53-490): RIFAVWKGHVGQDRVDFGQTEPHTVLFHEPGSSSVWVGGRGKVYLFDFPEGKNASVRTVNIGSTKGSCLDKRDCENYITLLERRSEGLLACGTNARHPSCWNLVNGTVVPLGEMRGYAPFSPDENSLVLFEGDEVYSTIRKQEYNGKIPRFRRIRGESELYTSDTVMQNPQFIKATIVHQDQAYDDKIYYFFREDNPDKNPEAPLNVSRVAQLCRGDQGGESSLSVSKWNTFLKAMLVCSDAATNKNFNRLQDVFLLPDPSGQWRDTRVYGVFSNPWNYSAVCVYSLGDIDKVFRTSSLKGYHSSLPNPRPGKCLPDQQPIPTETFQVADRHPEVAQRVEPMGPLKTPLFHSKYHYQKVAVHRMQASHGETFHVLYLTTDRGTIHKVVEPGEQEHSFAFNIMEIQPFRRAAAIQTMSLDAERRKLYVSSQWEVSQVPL

Human Semaphorin-7A entire ectodomain, soluble monomeric His-tagged (Cd4d3+4-His6), purified (domain or fragment)
Kd [1]: 1.94 µM and 1.93 µM and 2 µM | Kd [2]: 1.07 µM and 0.85 µM and 1.62 µM

P. falciparum MTRAP entire ectodomain, monomeric His-tagged, purified (domain or fragment)
koff [3]: 0.054 s⁻¹ and 0.045 s⁻¹ and 0.05 s⁻¹ | koff [4]: 0.053 s⁻¹ and 0.058 s⁻¹ and 0.056 s⁻¹ | koff [5]: 0.049 s⁻¹ and 0.051 s⁻¹ and 0.05 s⁻¹ | koff [6]: 0.053 s⁻¹ and 0.047 s⁻¹ and 0.05 s⁻¹ | koff [7]: 0.056 s⁻¹ and 0.054 s⁻¹ and 0.055 s⁻¹ | koff [8]: 0.05 s⁻¹ and 0.055 s⁻¹ and 0.053 s⁻¹ | koff [9]: 0.059 s⁻¹ and 0.053 s⁻¹ and 0.056 s⁻¹ | koff [10]: 0.058 s⁻¹ and 0.054 s⁻¹ and 0.056 s⁻¹ | koff [11]: 0.046 s⁻¹ and 0.057 s⁻¹ and 0.052 s⁻¹

monomeric His-tagged MTRAP ectodomain lacking the Cd4d3+4-tag (domain or fragment)
stoichiometry N [12]: 1

purified monomeric MTRAP (His-tagged ectodomain, analyte in SPR) (domain or fragment)
koff [13]: 0.061 s⁻¹ | koff [14]: 0.063 s⁻¹ | Kd [15]: 0.83 µM

purified monomeric Semaphorin-7A ectodomain (Cd4d3+4-His6) (domain or fragment)
Kd [16]: 1.96 µM | Kd [17]: 1.18 µM | stoichiometry N [18]: 2 | stoichiometry N [19]: 2
